Experiments:
hVEGF-A (8-109) [1] = biological target: T1, hVEGF-A (8-109) (human, UniProt P15692 214-315); assay: SPR
T1 sequence (looked up): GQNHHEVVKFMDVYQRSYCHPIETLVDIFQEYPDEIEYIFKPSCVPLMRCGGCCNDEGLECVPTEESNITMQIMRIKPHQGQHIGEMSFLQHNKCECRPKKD
Description: (§1) Depending on the format of the assay either a streptavidin sensor (SA) or a dextran-coated (CM5) sensor was utilized as described below.
(§2) Reaction was then quenched by addition of 10 molar excess of Glycine pH 8.0 and the sample was buffer exchanged into PBS using an Amicon 0.5 mL 3000 MWCO ultra-centrifugal filters (EMD Millipore). The biotinylation state of the protein was verified by LC-MS analysis. Biotinylated VEGF-A was then captured on the surface until a resonance unit (RU) signal of about ˜400. For immobilization of VEGF-A on CM5 sensor, the surface was first activated with a mixture of N-ethyl-N′-(3-dimethylaminopropyl)carbodiimide hydrochloride and N-hydroxysuccinimide (EDC/NHS) according to the supplier instructions. VEGF-A was then diluted into coupling buffer (0.1 M Acetate Buffer, pH 5.0) and injected until the signal reached about ˜400 RU followed by a wash with 1 M ethanolamine pH 8.0 to quench remaining activated sites.

human VEGF-A 165 = human VEGF-A 165 (human, UniProt P15692-4 27-191); assay: SPR
Description: as §1, §2

mouse VEGF-A 164 = biological target: T2, mouse VEGF-A 164 (mouse, UniProt Q00731-2 27-190); assay: SPR
T2 construct: also called mouse 164
T2 sequence (looked up): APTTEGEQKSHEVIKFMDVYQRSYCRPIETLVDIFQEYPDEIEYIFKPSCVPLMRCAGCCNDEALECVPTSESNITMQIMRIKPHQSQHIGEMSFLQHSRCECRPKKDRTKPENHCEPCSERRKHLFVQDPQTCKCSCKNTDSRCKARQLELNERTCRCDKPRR
Description: as §1, §2

rat VEGF-A = biological target: T3, rat VEGF-A (rat, UniProt P16612-2 27-190, limits assumed); assay: SPR
T3 construct: also called rVEGF
T3 sequence (looked up): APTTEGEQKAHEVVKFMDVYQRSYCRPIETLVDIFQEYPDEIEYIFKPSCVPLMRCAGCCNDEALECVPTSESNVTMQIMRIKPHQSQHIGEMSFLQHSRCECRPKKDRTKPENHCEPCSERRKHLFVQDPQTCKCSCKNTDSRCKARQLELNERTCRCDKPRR
Description: as §1, §2

rabbit VEGF-A = biological target: T4, rabbit VEGF-A (rabbit, UniProt G1T1L9 1-398); assay: SPR
T4 sequence: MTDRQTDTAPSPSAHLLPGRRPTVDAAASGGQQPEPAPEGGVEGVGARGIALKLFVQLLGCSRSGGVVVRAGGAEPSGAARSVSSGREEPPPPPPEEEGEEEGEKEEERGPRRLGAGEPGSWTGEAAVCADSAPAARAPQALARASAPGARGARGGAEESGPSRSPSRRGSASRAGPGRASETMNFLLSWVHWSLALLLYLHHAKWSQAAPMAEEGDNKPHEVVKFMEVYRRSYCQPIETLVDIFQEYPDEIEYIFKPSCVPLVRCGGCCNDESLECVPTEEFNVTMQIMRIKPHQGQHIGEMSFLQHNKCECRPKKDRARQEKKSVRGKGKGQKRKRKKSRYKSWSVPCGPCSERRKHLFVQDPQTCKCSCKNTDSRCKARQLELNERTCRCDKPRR
Description: as §1, §2

hVEGF-A [2] = biological target: T5, hVEGF-A (human, UniProt P15692-4 27-191, limits assumed); assay: SPR
T5 construct: also called human VEGF-A; WT
Description: as §1, §2

hVEGF-A [3] = biological target: T5, hVEGF-A; assay: cell-based or functional assay
hVEGF-A [4] = biological target: T5, hVEGF-A; assay: KDR-VEGF competition ELISA
hVEGF-A [5] = biological target: T5, hVEGF-A; assay: cell-based or functional assay; remark: listed apart in the source
EGF = EGF (human, UniProt P01133 971-1023); assay: competition ELISA: EGF coated, constant EGFR receptor, peptide titrated
IGF-1 = IGF-1 (human, UniProt P05019 49-118); assay: competition ELISA: IGF coated, constant IGFR receptor, peptide titrated
NGF = NGF (human, UniProt P01138 122-241, limits assumed); assay: competition ELISA: NGF coated, constant NGFR receptor, peptide titrated
PDGF-ββ = PDGF-ββ (human, UniProt P01127 82-190); assay: competition ELISA: PDGF coated, constant PDGFR receptor, peptide titrated
PIGF-2 = biological target: T6, PIGF-2 (human, UniProt P49763-3 19-170); assay: competition ELISA: PIGF-2 coated, constant Flt-1 receptor, peptide titrated
T6 construct: also called P1Gf-2; P1GF
T6 sequence (looked up): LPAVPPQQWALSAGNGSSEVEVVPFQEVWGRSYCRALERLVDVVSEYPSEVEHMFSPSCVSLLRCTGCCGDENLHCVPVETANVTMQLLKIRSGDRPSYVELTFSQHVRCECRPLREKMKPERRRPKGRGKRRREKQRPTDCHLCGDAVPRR

hVEGF-A (8-109) [6] = biological target: T1, hVEGF-A (8-109); assay: competition ELISA: VEGF-A (8-109) coated, constant KDR receptor, peptide titrated; blocked ligand: KDR
Description: Binding specificity of each peptide was established by competition ELISA. […] After blocking with block buffer (PBS with 0.5% BSA and 0.05% TWEEN®20) for 2 hours at room temperature, the receptor-Fc fusions or biotinylated receptors were serially diluted using assay buffer (PBS with 0.5% BSA and 0.05% TWEEN®20) and incubated for 1 hour at room temperature. […] Competition ELISA was conducted in an identical fashion as described above except after blocking, a mixture of serially diluted peptide containing a constant concentration of receptor-Fc fusion or biotinylated receptor (concentration of receptor was set to EC₆₀) was added and incubated for 1 hour. All recombinant human proteins and antibodies were purchased from R &D Systems (Minneapolis, Minn.).

NGF, sequence (P01138 122-241 limits assumed): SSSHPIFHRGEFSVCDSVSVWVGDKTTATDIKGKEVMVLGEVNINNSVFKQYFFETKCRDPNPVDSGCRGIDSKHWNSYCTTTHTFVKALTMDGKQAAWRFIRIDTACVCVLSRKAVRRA
PDGF-ββ, sequence (P01127 82-190): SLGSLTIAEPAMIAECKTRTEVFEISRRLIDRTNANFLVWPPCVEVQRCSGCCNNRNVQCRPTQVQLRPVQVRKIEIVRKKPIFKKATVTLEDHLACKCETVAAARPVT
EGF, sequence (P01133 971-1023 limits assumed): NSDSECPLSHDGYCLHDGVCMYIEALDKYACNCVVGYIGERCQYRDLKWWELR
human VEGF-A 165, sequence (P15692 other isoform, or with tags, fused parts or gaps limits assumed): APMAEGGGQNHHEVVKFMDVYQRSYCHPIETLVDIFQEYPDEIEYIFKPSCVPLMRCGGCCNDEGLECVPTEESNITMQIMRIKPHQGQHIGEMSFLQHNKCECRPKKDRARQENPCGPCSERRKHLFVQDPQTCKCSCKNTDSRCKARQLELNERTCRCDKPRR

Question: Which results are given for GCNIMLPFWGCGRDFECLAGCVCQYYQSCG (designed binder) [VEGF_CKP9.54.90]?
Answer: Kd (hVEGF-A (8-109) [1]): 0.87 nM; Kd (human VEGF-A 165): 0.89 nM; Kd (mouse VEGF-A 164): 1.31 nM; Kd (rat VEGF-A): 0.9 nM; Kd (rabbit VEGF-A): 1.14 nM; Kd (hVEGF-A [2]): 0.4 nM; Cellular IC50 (hVEGF-A [3]): 1.35 nM; IC50 (hVEGF-A [4]): 0.2 nM; IC50 (read off the curve) (hVEGF-A [5]): ~60 nM; binding result (EGF): no binding (tested: 5 µM); binding result (IGF-1): no binding (tested: 5 µM); binding result (NGF): no binding (tested: 5 µM); binding result (PDGF-ββ): no binding (tested: 5 µM); binding result (PIGF-2): no binding (tested: 5 µM); IC50 (read off the curve) (hVEGF-A (8-109) [6]): ~20 nM
